Patent US20240052065A1 (Boehringer Ingelheim, published 2024)
Residue numbers refer to the chain shown, from its start.

Columns and labels:
[1] = molecular target: T1, recombinant human CDH3 [EC2-EC3] (human, UniProt P22223 216-440, limits assumed); assay: SPR (ProteOn XPR36), bispecific captured on protein A/G, CDH3 EC2-EC3 as analyte
T1 construct: no separate entry is named for EC3; also called HuCDH3_EC2-EC3; EC2-EC3 peptide

[2] = molecular target: T2, recombinant human CDH3, full-length (human, UniProt P22223 108-654, limits assumed); assay: SPR (ProteOn XPR36), bispecific captured on protein A/G, CDH3 as analyte, 1:1 Langmuir fit
T2 construct: also called HuCDH3 full-length; human full-length CDH3

[3] = molecular target: T3, recombinant human CDH3 [EC1-EC2] (human, UniProt P22223 108-328, limits assumed); assay: as above
T3 construct: also called HuCDH3 EC1-EC2

B1: bispecific binding molecule CDH3/TRAILR2v2 (bispecific antibody, human IgG1, kappa, L234A L235A)
heavy: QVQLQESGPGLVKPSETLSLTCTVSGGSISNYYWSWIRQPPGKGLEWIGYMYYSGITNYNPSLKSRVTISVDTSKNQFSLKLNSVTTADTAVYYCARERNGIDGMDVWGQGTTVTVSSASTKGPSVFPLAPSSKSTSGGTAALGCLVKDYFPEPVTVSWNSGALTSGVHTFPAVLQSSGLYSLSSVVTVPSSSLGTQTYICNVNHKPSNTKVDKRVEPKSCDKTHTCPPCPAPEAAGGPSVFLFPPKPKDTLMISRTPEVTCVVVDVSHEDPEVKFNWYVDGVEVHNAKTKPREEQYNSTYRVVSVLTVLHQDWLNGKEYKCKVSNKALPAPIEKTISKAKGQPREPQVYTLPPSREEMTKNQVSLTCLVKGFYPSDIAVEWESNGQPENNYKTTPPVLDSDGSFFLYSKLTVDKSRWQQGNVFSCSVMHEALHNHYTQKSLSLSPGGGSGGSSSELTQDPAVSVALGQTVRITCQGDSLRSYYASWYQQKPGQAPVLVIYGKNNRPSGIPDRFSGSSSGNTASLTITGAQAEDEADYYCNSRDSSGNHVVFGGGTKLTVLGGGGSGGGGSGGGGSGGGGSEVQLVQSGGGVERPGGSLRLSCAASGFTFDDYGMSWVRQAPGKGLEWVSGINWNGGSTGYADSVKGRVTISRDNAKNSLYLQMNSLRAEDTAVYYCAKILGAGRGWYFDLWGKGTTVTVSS
light: DIVMTQSPLSLPVTPGEPASISCRSSQSLLHSYGYNYLDWYLQKPGQSPQLLIYLGSNRASGVPDRFSGSGSGTDFTLKISRVEAEDFGIYYCMQALQTPITFGQGTRLEIKRTVAAPSVFIFPPSDEQLKSGTASVVCLLNNFYPREAKVQWKVDNALQSGNSQESVTEQDSKDSTYSLSSTLTLSKADYEKHKVYACEVTHQGLSSPVTKSFNRGEC
notes: also called CDH3/TR2v2
Question: Does B1 bind [1]?
Answer: Result: no binding (tested: 500 nM analyte)

Question: And the Kd [2]?
Answer: Its Kd is 9.93 nM.

Question: And the Kd [3]?
Answer: The Kd was 11.4 nM.

B2: bispecific binding molecule CDH3/TRAILR2v3 (bispecific antibody, human IgG1, kappa, L234A L235A)
heavy: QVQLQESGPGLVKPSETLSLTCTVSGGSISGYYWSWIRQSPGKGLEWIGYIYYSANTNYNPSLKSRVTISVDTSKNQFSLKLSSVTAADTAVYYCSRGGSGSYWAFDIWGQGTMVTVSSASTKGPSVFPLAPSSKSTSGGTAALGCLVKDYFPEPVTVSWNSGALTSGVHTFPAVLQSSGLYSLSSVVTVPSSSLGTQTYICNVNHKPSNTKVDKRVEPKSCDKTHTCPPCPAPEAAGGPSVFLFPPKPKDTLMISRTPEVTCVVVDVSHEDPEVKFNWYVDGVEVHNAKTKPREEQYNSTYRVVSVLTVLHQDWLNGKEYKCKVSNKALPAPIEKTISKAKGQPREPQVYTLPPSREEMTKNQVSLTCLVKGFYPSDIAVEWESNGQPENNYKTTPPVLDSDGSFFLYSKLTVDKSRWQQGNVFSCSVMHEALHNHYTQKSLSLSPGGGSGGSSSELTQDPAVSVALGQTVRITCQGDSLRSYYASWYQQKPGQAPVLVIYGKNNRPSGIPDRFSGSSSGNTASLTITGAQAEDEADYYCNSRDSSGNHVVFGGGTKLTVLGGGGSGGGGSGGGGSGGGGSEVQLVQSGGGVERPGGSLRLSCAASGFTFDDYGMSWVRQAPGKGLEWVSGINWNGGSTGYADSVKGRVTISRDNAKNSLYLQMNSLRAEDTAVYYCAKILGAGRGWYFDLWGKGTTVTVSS
light: B1 light with L30M, H31Y, F88V, I101P, R108K, L109V
notes: also called CDH3/TR2v3
Question: Does B2 bind [1]?
Answer: Result: no binding (tested: 500 nM analyte)

Question: What about the Kd [2] of the same binder?
Answer: Its Kd is 1.08 nM.

Question: What about the Kd [3] of the same binder?
Answer: The Kd was 0.85 nM.
